Numbering of substitutions follows the chain as printed. Numbers in names are those of the source.
T1: FcgRIIaH (human, UniProt P12318 34-217)
T1 construct: extracellular domain; also called FcγRIIa H; FcgRIIa type H; not shown: His tag attached to the C terminus
T1 sequence (looked up): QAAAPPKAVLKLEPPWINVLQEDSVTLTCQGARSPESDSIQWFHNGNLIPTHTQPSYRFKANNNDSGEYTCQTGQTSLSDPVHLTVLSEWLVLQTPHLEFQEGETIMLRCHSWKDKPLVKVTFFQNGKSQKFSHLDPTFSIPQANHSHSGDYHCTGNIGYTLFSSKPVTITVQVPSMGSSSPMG

T2: FcgRIIb (human, UniProt P31994 43-217)
T2 construct: extracellular domain; also called FcγRIIb; 2b; not shown: His tag attached to the C terminus
T2 sequence (looked up): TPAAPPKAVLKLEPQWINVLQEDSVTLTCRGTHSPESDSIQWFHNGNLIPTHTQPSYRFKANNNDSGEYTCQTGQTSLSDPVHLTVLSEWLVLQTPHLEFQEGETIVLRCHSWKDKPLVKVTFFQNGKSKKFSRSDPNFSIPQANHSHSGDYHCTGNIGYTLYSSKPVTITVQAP

T3: FcgRIIaR (human, UniProt P12318 34-217)
T3 construct: extracellular domain; also called FcγRIIa R; FcgRIIa type R; not shown: His tag attached to the C terminus
T3 sequence (looked up): T1 sequence (looked up) with H134R

B1: H240-Kn032/H240-Hl032/L73-k0 (antibody, human IgG1, kappa)
heavy 1: QDQLVQSGAEVKKPGASVKVSCKASGFNIKDTYIQWVRQAPGQGLEWMGRIDPLRKQTKYREKFEGRVTITADTSTNTAYMELSSLRSEDTAVYYCVRSGREFDYWGQGTLVTVSSASTKGPSVFPLAPSSKSTSGGTAALGCLVKDYFPEPVTVSWNSGALTSGVHTFPAVLQSSGLYSLSSVVTVPSSSLGTQTYICNVNHKPSNTKVDKKVEPKSCDKTHTCPPCPAPELLGGPDVFLFPPKPKDTLMISRTPEVTCVVVDVSHEDPEVKFNWYVDGVEVHNAKTKPREEQYNSTYRVVSVLTVLHQDWLNGKEYKCKVSNKALPLPEEKTISKAKGQPREPQVCTLPPSRDELTKNQVSLWCLVKGFYPSDIAVEWESNGQPENNYKTTPPVLDSDGSFFLYSKLTVDKSRWQQGNVFSCSVMHEALHNHYTQKSLSLSP
heavy 2: B1 heavy 1 with C348Y, D355C, W365S, L367A, Y406V
light: DIQMTQSPSSLSASVGDRVTITCRASQDIHKYIAWYQQKPGQAPRLLIQYTSTLQPGVPSRFSGSGSGTDYTFTISSLQPEDIATYYCLQYEQLRTFGGGTKVEIKRTVAAPSVFIFPPSDEQLKSGTASVVCLLNNFYPREAKVQWKVDNALQSGNSQESVTEQDSKDSTYSLSSTLTLSKADYEKHKVYACEVTHQGLSSPVTKSFNRGEC
notes: Anti-epiregulin IgG1, knobs-into-holes; S239D/A330L/I332E in both H chains (comparison antibody)
B2: H240-Kn037/H240-Hl036/L73-k0 (antibody, human IgG1, kappa)
heavy 1: B1 heavy 1 with G235A, L329A
heavy 2: B1 heavy 1 with G235A, L329A, C348Y, D355C, W365S, L367A, Y406V
light: B1 light
B3: H240-Kn189/H240-Hl068/L73-k0 (antibody, human IgG1, kappa)
heavy 1: B1 heavy 1 with L233S, L234Y, G235W, D238M, H267D, S297A, A326D, L329A, E331I
heavy 2: QDQLVQSGAEVKKPGASVKVSCKASGFNIKDTYIQWVRQAPGQGLEWMGRIDPLRKQTKYREKFEGRVTITADTSTNTAYMELSSLRSEDTAVYYCVRSGREFDYWGQGTLVTVSSASTKGPSVFPLAPSSKSTSGGTAALGCLVKDYFPEPVTVSWNSGALTSGVHTFPAVLQSSGLYSLSSVVTVPSSSLGTQTYICNVNHKPSNTKVDKKVEPKSCDKTHTCPPCPAPELLGGPSVFLFPPKPKDTLMISRTPEVTCVVVDVSHEEPEVKFNWYVDGVEVHNAKTKPREEQYNSTYRVVSVLTVLHQDWLNGKEYKCKVSNDALPKPIEETISKAKGQPREPQVYTLPPSRCELTKNQVSLSCAVKGFYPSDIAVEWESNGQPENNYKTTPPVLDSDGSFFLVSKLTVDKSRWQQGNVFSCSVMHEALHNHYTQKSLSLSP
light: B1 light
notes: Anti-epiregulin heterodimerized IgG1, knobs-into-holes
B4: H240-Kn201/H240-Hl076/L73-k0 (antibody, human IgG1, kappa)
heavy 1: B1 heavy 1 with L233F, L234Q, G235W, D238M, H267D, D269E, S297A, L329A, E331I
heavy 2: B3 heavy 2 with K329M
light: B1 light
notes: as for B3
B5: H240-Kn207/H240-Hl076/L73-k0 (antibody, human IgG1, kappa)
heavy 1: B1 heavy 1 with L233V, L234Q, G235W, D238M, H267D, D269E, S297A, L329A, E331I
heavy 2: B3 heavy 2 with K329M
light: B1 light
notes: as for B3
B6: H240-Kn199/H240-Hl068/L73-k0 (antibody, human IgG1, kappa)
heavy 1: B1 heavy 1 with L234Y, G235W, D238M, H267D, S297A, A326D, L329A, E331I
heavy 2: B3 heavy 2
light: B1 light
notes: as for B3
B7: H240-Kn203/H240-Hl068/L73-k0 (antibody, human IgG1, kappa)
heavy 1: B1 heavy 1 with L233F, L234Y, G235W, D238M, H267D, S297A, A326D, L329A, E331I
heavy 2: B3 heavy 2
light: B1 light
notes: as for B3
B8: H240-Kn184/H240-Hl068/L73-k0 (antibody, human IgG1, kappa)
heavy 1: B1 heavy 1 with L233E, L234Y, G235W, D238M, H267D, S297A, A326D, L329A, E331I
heavy 2: B3 heavy 2
light: B1 light
notes: as for B3
B9: H240-Kn198/H240-Hl076/L73-k0 (antibody, human IgG1, kappa)
heavy 1: B1 heavy 1 with L234Q, G235W, D238M, H267D, D269E, S297A, L329A, E331I
heavy 2: B3 heavy 2 with K329M
light: B1 light
notes: as for B3
B10: H240-Kn120/H240-Hl068/L73-k0 (antibody, human IgG1, kappa)
heavy 1: B1 heavy 1 with L233Y, L234Y, G235W, D238M, H267D, S297A, A326D, L329A, E331I
heavy 2: B3 heavy 2
light: B1 light
notes: as for B3
B11: H240-Kn208/H240-Hl076/L73-k0 (antibody, human IgG1, kappa)
heavy 1: B1 heavy 1 with L233D, L234Q, G235W, D238M, H267D, D269E, S297A, L329A, E331I
heavy 2: B3 heavy 2 with K329M
light: B1 light
notes: as for B3
B12: H240-Kn202/H240-Hl076/L73-k0 (antibody, human IgG1, kappa)
heavy 1: B1 heavy 1 with L233E, L234Q, G235W, D238M, H267D, D269E, S297A, L329A, E331I
heavy 2: B3 heavy 2 with K329M
light: B1 light
notes: as for B3
B13: H240-Kn200/H240-Hl076/L73-k0 (antibody, human IgG1, kappa)
heavy 1: B1 heavy 1 with L233S, L234Q, G235W, D238M, H267D, D269E, S297A, L329A, E331I
heavy 2: B3 heavy 2 with K329M
light: B1 light
notes: as for B3
B14: H240-Kn204/H240-Hl211/L73-k0 (antibody, human IgG1, kappa)
heavy 1: B1 heavy 1 with L233Y, D238S, K289Y, Y295W, L329A, E331I
heavy 2: B3 heavy 2 with S238D, E269D, D325K, K329M, E333V
light: B1 light
notes: Anti-epiregulin heterodimerized IgG1, knobs-into-holes; L234Y/K290Y/Y296W in one H chain, S239D/A330M/K334V in the other
B15: H240-Kn205/H240-Hl212/L73-k0 (antibody, human IgG1, kappa)
heavy 1: B1 heavy 1 with L233Y, D238S, Y295W, S297C, L329A, E331I
heavy 2: B3 heavy 2 with S238D, E269D, D325K, K329A, E333V
light: B1 light
notes: Anti-epiregulin heterodimerized IgG1, knobs-into-holes; L234Y/Y296W/S298C in one H chain, S239D/K334V in the other

What follows are binders tested against T4, FcgRIIIaV (human, UniProt P08637 17-208) (assay: SPR (Biacore); KD of H240-Kn033/H240-Hl033/L73-k0 divided by KD of this variant).
T4 construct: extracellular domain; also called FcγRIIIa V; 3aV; not shown: His tag attached to the C terminus
Method: (§1) H240-Kn204/H240-Hl211/L73-k0 and H240-Kn205/H240-Hl212/L73-k0 were prepared according to the method of Reference Example 1, by combining H240-Kn204 as one of the H chains and L73-k0 as the L chains with H240-Hl211 as the other H chain, and by combining H240-Kn205 as one of the H chains and L73-k0 as the L chains with H240-Hl212 as the other H chain, and then expressing them. The binding of the prepared variants to FcgRIa, FcgRIIaR, FcgRIIaH, FcgRIIb, FcgRIIIaF, and FcgRIIIaV was measured according to the method of Reference Example 8.
(§2) “fold 2aR”, “fold 2aH”, “fold 2b”, “fold 3aF”, and “fold 3aV” show the relative binding activity of each variant to FcgRIIaR, FcgRIIaH, FcgRIIb, FcgRIIIaF, and FcgRIIIaV, respectively, when the binding activity of H240-Kn033/H240-Hl033/L73-k0, a variant produced by introducing only alterations that promote formation of a heterodimerized antibody into a native IgG1, is defined as 1. Specifically, they are values obtained by dividing the KD value of H240-Kn033/H240-Hl033/L73-k0 for each FcgR by the KD value of an individual variant for each FcgR.
(§3) Analysis of interaction between objective antibody and the FcγR was carried out using Biacore T100 (GE Healthcare), Biacore T200, Biacore A100, and Biacore 4000. HBS-EP+ (GE Healthcare) was used as the running buffer, and the measurement temperature was set to 25° C. Chips produced by immobilizing the antigen peptide by the amine coupling method to a Series S sensor Chip CM5 (GE Healthcare), chips produced by allowing preliminarily biotinylated antigen peptides to interact with and immobilize onto a Series S Sensor Chip SA (certified) (GE Healthcare), chips produced by immobilizing Protein L (ACTIGEN, BioVision) to Series S Sencor Chip CM5 (GE Healthcare), or chips produced by immobilizing Protein A/G (Thermo Scientific) to Series S Sencor Chip CM5 (GE Healthcare) were used. Antibodies of interest were captured onto these chips, and allowed to interact to each FcγR diluted with running buffer.

T4 sequence (P08637 17-208 F176V limits assumed): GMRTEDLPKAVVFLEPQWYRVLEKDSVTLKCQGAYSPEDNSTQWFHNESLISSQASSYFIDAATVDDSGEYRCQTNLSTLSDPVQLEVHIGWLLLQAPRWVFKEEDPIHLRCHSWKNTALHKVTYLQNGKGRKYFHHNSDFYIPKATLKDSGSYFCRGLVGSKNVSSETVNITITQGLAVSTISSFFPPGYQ

Row | fold 3aV [fold] | Binder
1 | 15.5 | B1
2 | 7.1 | B2
3 | 92.3 | B3
4 | 133 | B4
5 | 98 | B5
6 | 117 | B6
7 | 63.2 | B7
8 | 141 | B8
9 | 88.9 | B9
10 | 146 | B10
11 | 120 | B11
12 | 126 | B12
13 | 81.4 | B13
14 | 6.5 | B14
15 | 11.4 | B15

These binders were tested against T1, FcgRIIaH in the same assay as above.
Method: as §1, §2, §3

Row | fold 2aH [fold] | Binder
16 | 0.8 | B1
17 | 11.3 | B2
18 | 10.8 | B3
19 | 3.7 | B4
20 | 3.1 | B5
21 | 19.3 | B6
22 | 10.6 | B7
23 | 7.4 | B8
24 | 3.7 | B9
25 | 11.8 | B10
26 | 1.7 | B11
27 | 1.4 | B12
28 | 2.3 | B13
29 | 0.7 | B14
30 | 1.4 | B15

The binders below were run against T2, FcgRIIb in the same assay as above.
Method: as §1, §2, §3

Row | fold 2b [fold] | Binder
31 | 5.3 | B1
32 | 8.7 | B2
33 | 22 | B3
34 | 0.6 | B4
35 | 0.6 | B5
36 | 25.4 | B6
37 | 12.2 | B7
38 | 22 | B8
39 | 0.5 | B9
40 | 22 | B10
41 | 1 | B11
42 | 0.8 | B12
43 | 0.5 | B13
44 | 2.5 | B14
45 | 2.1 | B15

These binders were tested against T5, FcgRIIIaF (human, UniProt P08637 17-208) in the same assay as above.
T5 construct: extracellular domain; also called FcγRIIIa F; 3aF; not shown: His tag attached to the C terminus
Method: as §1, §2, §3

T5 sequence (P08637 17-208): as the sequence (P08637 17-208 F176V limits assumed) above, with V160F counted along it

Row | fold 3aF [fold] | Binder
46 | 31.9 | B1
47 | 13.8 | B2
48 | 90.6 | B3
49 | 161 | B4
50 | 153 | B5
51 | 126 | B6
52 | 85.3 | B7
53 | 132 | B8
54 | 193 | B9
55 | 121 | B10
56 | 161 | B11
57 | 181 | B12
58 | 121 | B13
59 | 20.7 | B14
60 | 24.2 | B15

These binders were tested against T3, FcgRIIaR in the same assay as above.
Method: as §1, §2, §3

Row | fold 2aR [fold] | Binder
61 | 2.2 | B1
62 | 25.5 | B2
63 | 32.2 | B3
64 | 1 | B4
65 | 1.1 | B5
66 | 37 | B6
67 | 16.1 | B7
68 | 27.4 | B8
69 | 1.2 | B9
70 | 32.2 | B10
71 | 1.5 | B11
72 | 1.2 | B12
73 | 0.9 | B13
74 | 1.2 | B14
75 | 1.2 | B15

Reference: US20150344570A1 (published 2015)
